Laboratory results taken from paper PMC4837377 (Scientific Reports, 2016).

Target: PA (residues 1-716) of influenza A virus RNA-dependent RNA-polymerase (influenza A virus …, UniProt P31343 1-716)
Experiment: SEC-SAXS
Conditions: both partners purified

B1: PB1(1-686) of influenza A virus RNA-dependent RNA-polymerase (domain or fragment)
chain: MDVNPTLLFLKVPAQNAISTTFPYTGDPPYSHGTGTGYTMDTVNRTHQYSEKGKWTTNTETGAAQLNPIDGPLPEDNEPSGYAQTDCVLEAMAFLEESHPGIFENSCLETMEVVQQTRVDRLTQGRQTYDWTLNRNQPAATALANTIEVFRSNGLIANESGRLIDFLKDVIESMDKEEMEITTHFQRKRRVRDNMTKKMVTQRTIGKKKQRVNKRSYLIRALTLNTMTKDAERGKLKRRAIATPGMQIRGFVYFVETLARSICEKLEQSGLPVGGNEKKAKLANVVRKMMTNSQDTELSFTITGDNTKWNENQNPRMFLAMITYITKNQPEWFRNILSIAPIMFSNKMARLGKGYMFESKRMKLRTQIPAEMLASIDLKYFNESTRKKIEKIRPLLIDGTASLSPGMMMGMFNMLSTVLGVSILNLGQKKYTKTTYWWDGLQSSDDFALIVNAPNHEGIQAGVDRFYRTCKLVGINMSKKKSYINRTGTFEFTSFFYRYGFVANFSMELPSFGVSGINESADMSIGVTVIKNNMINNDLGPATAQMALQLFIKDYRYTYRCHRGDTQIQTRRSFELKKLWEQTRSKAGLLVSDGGPNLYNIRNLHIPEVCLKWELMDEDYQGRLCNPLNPFVSHKEIESVNNAVVMPAHGPAKSMEYDAVATTHSWIPKRNRSILNTSQRGILEDE
In the case of B1, the “stoichiometry N” value is reported as 1.
